# Literature values, collected in US9145575B2, “Detection of protease and protease activity using a single nanocrescent SERS probe” (The Regents of the University of California, priority 2006, dated 2015).
# Molecular target: PSA (Homo sapiens, UniProt P07288)
# Details: mouse model
# Chain of PSA (P07288 25-261): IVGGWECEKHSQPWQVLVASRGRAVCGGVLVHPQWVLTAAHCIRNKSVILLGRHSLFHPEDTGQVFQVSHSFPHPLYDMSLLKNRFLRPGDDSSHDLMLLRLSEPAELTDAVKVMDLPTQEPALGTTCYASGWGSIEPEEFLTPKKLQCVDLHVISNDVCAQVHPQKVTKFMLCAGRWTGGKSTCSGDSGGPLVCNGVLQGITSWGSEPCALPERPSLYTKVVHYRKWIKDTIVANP
substance,measurement,value
HSSKLQ-L (HSSKLQLAAAC; Synthetic protease substrate),cleavage by proteases in vivo,cleaved by PSA but not by any other proteases
